From patent publication US20220332804A1 (CSL INNOVATION, published 2022) come the findings set out here.

What all share (assay): SPR, KD relative to WT C2;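 further: biacore SPR at 37 °C, anti-C2 mAbs captured via immobilised goat anti-human IgG, C2 alanine or serine surface mutants as analytes, 1:1 model fitted, double-referenced sensograms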
For one test, the target named is T1, human C2 P704A (human, UniProt P06681 21-752).
T1 sequence: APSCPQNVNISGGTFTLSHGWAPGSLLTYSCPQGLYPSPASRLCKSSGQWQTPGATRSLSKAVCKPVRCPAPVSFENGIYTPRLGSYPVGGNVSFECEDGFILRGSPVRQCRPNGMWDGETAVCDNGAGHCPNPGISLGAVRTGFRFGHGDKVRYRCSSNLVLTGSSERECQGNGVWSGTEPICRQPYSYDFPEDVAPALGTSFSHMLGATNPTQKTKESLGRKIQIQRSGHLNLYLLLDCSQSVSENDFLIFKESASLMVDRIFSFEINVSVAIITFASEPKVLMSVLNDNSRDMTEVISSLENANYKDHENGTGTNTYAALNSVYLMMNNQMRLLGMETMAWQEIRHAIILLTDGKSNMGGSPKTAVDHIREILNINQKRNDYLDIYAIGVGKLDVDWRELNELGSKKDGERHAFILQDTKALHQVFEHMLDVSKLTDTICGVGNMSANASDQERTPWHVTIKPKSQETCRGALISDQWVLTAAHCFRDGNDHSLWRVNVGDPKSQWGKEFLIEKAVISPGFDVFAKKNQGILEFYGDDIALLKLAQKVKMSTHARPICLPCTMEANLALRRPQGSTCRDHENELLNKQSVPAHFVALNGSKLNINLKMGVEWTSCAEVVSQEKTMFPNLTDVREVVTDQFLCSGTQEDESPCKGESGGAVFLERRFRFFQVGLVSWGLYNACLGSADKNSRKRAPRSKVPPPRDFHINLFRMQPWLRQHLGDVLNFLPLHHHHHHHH

In the next test the target is T2, human C2 P718A (human, UniProt P06681 21-752).
T2 sequence: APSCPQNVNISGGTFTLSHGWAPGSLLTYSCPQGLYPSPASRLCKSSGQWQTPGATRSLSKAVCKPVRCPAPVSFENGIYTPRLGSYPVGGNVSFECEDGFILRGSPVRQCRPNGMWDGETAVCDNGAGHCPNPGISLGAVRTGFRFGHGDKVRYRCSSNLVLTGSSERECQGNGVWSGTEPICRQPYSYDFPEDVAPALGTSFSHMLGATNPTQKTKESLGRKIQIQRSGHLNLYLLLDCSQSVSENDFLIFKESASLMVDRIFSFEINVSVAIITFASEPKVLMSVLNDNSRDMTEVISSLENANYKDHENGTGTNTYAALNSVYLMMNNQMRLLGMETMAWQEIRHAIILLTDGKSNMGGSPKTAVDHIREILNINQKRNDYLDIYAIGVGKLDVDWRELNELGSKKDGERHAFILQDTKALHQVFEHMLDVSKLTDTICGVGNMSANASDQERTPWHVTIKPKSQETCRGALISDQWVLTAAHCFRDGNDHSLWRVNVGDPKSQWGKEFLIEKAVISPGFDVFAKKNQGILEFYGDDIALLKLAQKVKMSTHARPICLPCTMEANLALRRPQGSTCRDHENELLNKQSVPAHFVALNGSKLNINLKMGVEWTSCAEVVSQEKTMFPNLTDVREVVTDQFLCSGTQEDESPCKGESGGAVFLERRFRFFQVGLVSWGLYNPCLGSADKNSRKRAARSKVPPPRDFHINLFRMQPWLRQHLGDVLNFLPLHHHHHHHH

The target in another test is T3, human C2 E324A (human, UniProt P06681 21-752).
T3 sequence: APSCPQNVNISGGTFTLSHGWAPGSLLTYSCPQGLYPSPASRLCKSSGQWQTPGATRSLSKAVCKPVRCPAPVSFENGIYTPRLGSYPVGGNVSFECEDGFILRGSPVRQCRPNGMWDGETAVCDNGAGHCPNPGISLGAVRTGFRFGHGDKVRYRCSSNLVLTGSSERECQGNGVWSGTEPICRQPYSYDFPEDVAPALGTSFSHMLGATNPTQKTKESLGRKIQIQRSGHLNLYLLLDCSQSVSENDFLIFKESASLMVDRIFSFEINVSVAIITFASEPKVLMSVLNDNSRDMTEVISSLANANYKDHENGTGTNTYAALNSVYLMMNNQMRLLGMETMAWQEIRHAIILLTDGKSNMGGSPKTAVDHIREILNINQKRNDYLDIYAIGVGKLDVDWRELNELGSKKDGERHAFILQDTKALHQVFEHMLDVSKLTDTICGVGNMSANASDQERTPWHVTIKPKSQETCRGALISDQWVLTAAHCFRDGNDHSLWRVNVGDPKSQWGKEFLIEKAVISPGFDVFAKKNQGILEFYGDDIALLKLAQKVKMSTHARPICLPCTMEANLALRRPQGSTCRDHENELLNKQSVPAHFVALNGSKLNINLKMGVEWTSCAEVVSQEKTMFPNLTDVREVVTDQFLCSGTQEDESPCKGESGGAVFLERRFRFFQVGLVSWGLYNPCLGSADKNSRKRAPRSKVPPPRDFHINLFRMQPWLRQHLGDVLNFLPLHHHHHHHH

The target of a further test is T4, human C2 K430A (human, UniProt P06681 21-752).
T4 sequence: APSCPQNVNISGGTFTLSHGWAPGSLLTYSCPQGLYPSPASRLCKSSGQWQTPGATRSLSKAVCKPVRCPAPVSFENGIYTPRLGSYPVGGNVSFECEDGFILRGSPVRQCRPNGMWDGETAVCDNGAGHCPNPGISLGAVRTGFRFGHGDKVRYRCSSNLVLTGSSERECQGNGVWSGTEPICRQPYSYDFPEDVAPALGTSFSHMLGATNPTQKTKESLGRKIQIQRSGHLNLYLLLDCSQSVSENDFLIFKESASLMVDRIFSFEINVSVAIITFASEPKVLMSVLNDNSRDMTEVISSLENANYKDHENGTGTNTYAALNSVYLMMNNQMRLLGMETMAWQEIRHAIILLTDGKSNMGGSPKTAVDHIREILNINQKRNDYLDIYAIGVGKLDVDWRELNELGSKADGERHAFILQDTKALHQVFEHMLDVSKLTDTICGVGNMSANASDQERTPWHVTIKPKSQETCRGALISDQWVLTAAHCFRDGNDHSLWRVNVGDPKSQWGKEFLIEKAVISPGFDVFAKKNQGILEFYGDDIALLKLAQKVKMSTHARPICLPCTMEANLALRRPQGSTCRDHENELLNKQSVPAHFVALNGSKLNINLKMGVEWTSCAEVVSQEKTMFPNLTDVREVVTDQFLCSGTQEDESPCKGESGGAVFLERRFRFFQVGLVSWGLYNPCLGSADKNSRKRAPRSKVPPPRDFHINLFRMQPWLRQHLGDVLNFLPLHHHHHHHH

B1: RF16-226 (antibody, human IgG4 S228P, lambda)
heavy: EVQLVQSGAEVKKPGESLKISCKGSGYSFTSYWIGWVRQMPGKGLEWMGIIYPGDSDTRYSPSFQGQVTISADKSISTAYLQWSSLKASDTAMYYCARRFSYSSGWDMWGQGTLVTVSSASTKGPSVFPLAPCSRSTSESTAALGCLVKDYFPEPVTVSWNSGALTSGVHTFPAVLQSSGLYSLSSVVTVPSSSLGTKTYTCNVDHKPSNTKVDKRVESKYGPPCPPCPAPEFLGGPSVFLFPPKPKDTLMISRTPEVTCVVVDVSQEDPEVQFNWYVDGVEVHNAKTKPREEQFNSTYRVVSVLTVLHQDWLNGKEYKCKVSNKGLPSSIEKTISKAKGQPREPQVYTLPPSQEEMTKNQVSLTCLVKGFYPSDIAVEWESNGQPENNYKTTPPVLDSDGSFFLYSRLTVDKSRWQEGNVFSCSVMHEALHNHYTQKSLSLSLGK
light: SYELTQPPSVSVSPGQTARITCSGDALTSKYVAWYQQKSGLAPLLVIYEDTRRPSGIPAKFSGSSSGSVATLTISGAHGDDEADYYCYSTDASGHQRVFGGGTKLTVLSQPKAAPSVTLFPPSSEELQANKATLVCLISDFYPGAVTVAWKADGSPVKAGVETTKPSKQSNNKYAASSYLSLTPEQWKSHRSYSCQVTHEGSTVEKTVAPTECS
notes: pH-dependent anti-C2 antibody from a phage display library; also called WT
With B1, the Fold diff with human C2 P704A was 12 fold; with human C2 P718A, 2 fold; in the test with human C2 E324A, 1 fold; in the test with human C2 K430A, 6 fold.
